Results reported in US20140051106.

Columns and labels:
[1] = target: RPS23 peptide (peptide fragment of the RPS23 protein)
RPS23 20mer V05A = target: T1, RPS23 20mer V05A
T1 chain: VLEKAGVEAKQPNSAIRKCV

[2] = target: T2, HIF-1α C-terminal transcriptional activation domain (CTAD) peptide, Q16665
T2 chain: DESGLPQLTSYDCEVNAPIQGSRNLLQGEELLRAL

[3] = target: T3, HIF-1α N-terminal oxygen dependent degradation domain (NODD) peptide, Q16665
T3 chain: DALTLLAPAAGDTIISLDF

[4] = target: T4, HIF-1α C-terminal oxygen dependent degradation domain (CODD) peptide, Q16665
T4 chain: DLDLEMLAPYIPMDDDFQL

[5] = target: T5, S. Cerevisiae RPS23 peptide
T5 chain: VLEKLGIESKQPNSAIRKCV

RPS23 20mer K10A = target: T6, RPS23 20mer K10A
T6 chain: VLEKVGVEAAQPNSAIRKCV

RPS23 20mer Q11A = target: T7, RPS23 20mer Q11A
T7 chain: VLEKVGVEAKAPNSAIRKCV

RPS23 20mer P12I = target: T8, RPS23 20mer P12I
T8 chain: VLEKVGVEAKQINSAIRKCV

RPS23 20mer N13A = target: T9, RPS23 20mer N13A
T9 chain: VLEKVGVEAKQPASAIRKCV

RPS23 20mer K04A = target: T10, RPS23 20mer K04A
T10 chain: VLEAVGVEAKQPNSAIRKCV

[6] = target: histone fragment peptides
RPS23 20mer C19A = target: T11, RPS23 20mer C19A
T11 chain: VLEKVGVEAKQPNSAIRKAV

RPS23 20mer E08A = target: T12, RPS23 20mer E08A
T12 chain: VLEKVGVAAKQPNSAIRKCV

RPS23 20mer V07A = target: T13, RPS23 20mer V07A
T13 chain: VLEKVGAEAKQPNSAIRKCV

S. Pombe RPS23 peptide = target: T14, S. Pombe RPS23 peptide
T14 chain: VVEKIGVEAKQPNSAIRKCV

RPS23 16mer = target: T15, RPS23 16mer
T15 chain: EKVGVEAKQPNSAIRK

RPS23 20mer K18A = target: T16, RPS23 20mer K18A
T16 chain: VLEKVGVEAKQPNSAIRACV

RPS23 20mer S14A = target: T17, RPS23 20mer S14A
T17 chain: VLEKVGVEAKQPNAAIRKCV

RPS23 20mer P12A = target: T18, RPS23 20mer P12A
T18 chain: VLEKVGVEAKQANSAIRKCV

RPS23 20mer G06A = target: T19, RPS23 20mer G06A
T19 chain: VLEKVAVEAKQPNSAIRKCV

RPS23 20mer I16A = target: T20, RPS23 20mer I16A
T20 chain: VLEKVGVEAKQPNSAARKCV

B1: H155A mutant of full-length human OGFOD1 (protein)
chain: MGSSHHHHHHSSGLVPRGSHMASMNGKRPAEPGPARVGKKGKKEVMAEFSDAVTEETLKKQVAEAWSRRTPFSHEVIVMDMDPFLHCVIPNFIQSQDFLEGLQKELMNLDFHEKYNDLYKFQQSDDLKKRREPHISTLRKILFEDFRSWLSDISKIDLESTIDMSCAKYEFTDALLCADDELEGRRIAFILYLVPPWDRSMGGTLDLYSIDEHFQPKQIVKSLIPSWNKLVFFEVSPVSFHQVSEVLSEEKSRLSISGWFHGPSLTRPPNYFEPPIPRSPHIPQDHEILYDWINPTYLDMDYQVQIQEEFEESSEILLKEFLKPEKFTKVCEALEHGHVEWSSRGPPNKRFYEKAEESKLPEILKECMKLFRSEALFLLLSNFTGLKLHFLAPSEEDEMNDKKEAETTDITEEGTSHSPPEPENNQMAISNNSQQSNEQTDPEPEENETKKESSVPMCQGELRHWKTGHYTLIHDHSKAEFALDLILYCGCEGWEPEYGGFTSYIAKGEDEELLTVNPESNSLALVYRDRETLKFVKHINHRSLEQKKTFPNRTGFWDFSFIYYE
- MALDI mass spectrometry, +16 mass shift [1]: no such change was detectable with the H155A or D157A variants under standard assay conditions

B2: D157A mutant of full-length human OGFOD1 (protein)
chain: MGSSHHHHHHSSGLVPRGSHMASMNGKRPAEPGPARVGKKGKKEVMAEFSDAVTEETLKKQVAEAWSRRTPFSHEVIVMDMDPFLHCVIPNFIQSQDFLEGLQKELMNLDFHEKYNDLYKFQQSDDLKKRREPHISTLRKILFEDFRSWLSDISKIDLESTIDMSCAKYEFTDALLCADAELEGRRIAFILYLVPPWDRSMGGTLDLYSIDEHFQPKQIVKSLIPSWNKLVFFEVSPVSFHQVSEVLSEEKSRLSISGWFHGPSLTRPPNYFEPPIPRSPHIPQDHEILYDWINPTYLDMDYQVQIQEEFEESSEILLKEFLKPEKFTKVCEALEHGHVEWSSRGPPNKRFYEKAEESKLPEILKECMKLFRSEALFLLLSNFTGLKLHFLAPSEEDEMNDKKEAETTDITEEGTSHSPPEPENNQMAISNNSQQSNEQTDPEPEENETKKESSVPMCQGELRHWKTGHYTLIHDHSKAEFALDLILYCGCEGWEPEYGGFTSYIAKGEDEELLTVNPESNSLALVYRDRETLKFVKHINHRSLEQKKTFPNRTGFWDFSFIYYE
- MALDI mass spectrometry, +16 mass shift [1]: no such change was detectable with the H155A or D157A variants under standard assay conditions

B3: recombinant full-length human OGFOD1 (protein)
chain: MNGKRPAEPGPARVGKKGKKEVMAEFSDAVTEETLKKQVAEAWSRRTPFSHEVIVMDMDPFLHCVIPNFIQSQDFLEGLQKELMNLDFHEKYNDLYKFQQSDDLKKRREPHISTLRKILFEDFRSWLSDISKIDLESTIDMSCAKYEFTDALLCHDDELEGRRIAFILYLVPPWDRSMGGTLDLYSIDEHFQPKQIVKSLIPSWNKLVFFEVSPVSFHQVSEVLSEEKSRLSISGWFHGPSLTRPPNYFEPPIPRSPHIPQDHEILYDWINPTYLDMDYQVQIQEEFEESSEILLKEFLKPEKFTKVCEALEHGHVEWSSRGPPNKRFYEKAEESKLPEILKECMKLFRSEALFLLLSNFTGLKLHFLAPSEEDEMNDKKEAETTDITEEGTSHSPPEPENNQMAISNNSQQSNEQTDPEPEENETKKESSVPMCQGELRHWKTGHYTLIHDHSKAEFALDLILYCGCEGWEPEYGGFTSYIAKGEDEELLTVNPESNSLALVYRDRETLKFVKHINHRSLEQKKTFPNRTGFWDFSFIYYE
- Hydroxylation (RPS23 20mer V05A): ++
- MALDI-TOF, +16 Da mass shift characteristic of hydroxylation [2]: None of these potential substrates displayed evidence of a +16 Da mass shift characteristic of hydroxylation.
- MALDI-TOF, +16 Da mass shift characteristic of hydroxylation [3]: None of these potential substrates displayed evidence of a +16 Da mass shift characteristic of hydroxylation.
- Hydroxylation (MALDI assay) [4]: No hydroxylation of the PHD2 C-terminal oxygen-dependent degradation domain (CODD) substrate by OGFOD1 was observed under the same assay conditions.
- MALDI-TOF, +16 Da mass shift characteristic of hydroxylation [4]: None of these potential substrates displayed evidence of a +16 Da mass shift characteristic of hydroxylation.
- Hydroxylation [5]: ++
- Hydroxylation (RPS23 20mer K10A): ++
- 2OG turnover assay [1]: Activity is also stimulated significantly in the presence of a peptide fragment of the RPS23 protein.
- MALDI mass spectrometry, +16 mass shift [1]: a clear +16 mass shift was observed upon incubation of RPS23 peptide with wild-type OGFOD1
- Hydroxylation (RPS23 20mer Q11A): ++
- Hydroxylation (RPS23 20mer): ++
- amino acid analysis of the enzymatic product (RPS23 20mer): The results clearly demonstrate the presence of trans-3-hydroxyproline in the enzymatic product
- Hydroxylation (RPS23 20mer P12I): -
- Hydroxylation (E. Coli S12 peptide): -
- Hydroxylation (RPS23 20mer N13A): +
- Hydroxylation (RPS23 20mer K04A): ++
- MALDI-TOF, demethylation [6]: Neither did we find that OGFOD1 catalyzed N^ε-methyl-lysine or arginyl demethylation of histone fragment peptides
- Hydroxylation (RPS23 20mer C19A): ++
- Hydroxylation (RPS23 20mer E08A): ++
- Hydroxylation (RPS23 20mer V07A): ++
- Hydroxylation (S. Pombe RPS23 peptide): ++
- Hydroxylation (RPS23 16mer): +
- Hydroxylation (RPS23 20mer K18A): ++
- Hydroxylation (RPS23 20mer S14A): +
- Hydroxylation (RPS23 20mer P12A): -
- Hydroxylation (RPS23 20mer G06A): ++
- Hydroxylation (RPS23 20mer I16A): ++
